Results on three molecules are retold here after article doi:10.1101/2023.12.08.570889 (bioRxiv, 2023).

Common to all, as to test: SPR
(SPR reads the build-up and loss of mass on a sensor chip optically.)

For assay [1], the target named is IL36R (Homo sapiens (assumed), UniProt Q9HB29).
In assay [2] the target is CD40 (Homo sapiens (assumed), UniProt P25942).
For assay [3], the target named is IL17A (Homo sapiens (assumed), UniProt Q16552).
Sequence of IL17A (Q16552 24-155): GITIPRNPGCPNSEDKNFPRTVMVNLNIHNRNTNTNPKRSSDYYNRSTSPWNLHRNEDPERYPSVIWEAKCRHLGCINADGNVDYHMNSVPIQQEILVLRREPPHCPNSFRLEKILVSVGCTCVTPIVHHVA

Sequence of IL36R (Q9HB29 20-335): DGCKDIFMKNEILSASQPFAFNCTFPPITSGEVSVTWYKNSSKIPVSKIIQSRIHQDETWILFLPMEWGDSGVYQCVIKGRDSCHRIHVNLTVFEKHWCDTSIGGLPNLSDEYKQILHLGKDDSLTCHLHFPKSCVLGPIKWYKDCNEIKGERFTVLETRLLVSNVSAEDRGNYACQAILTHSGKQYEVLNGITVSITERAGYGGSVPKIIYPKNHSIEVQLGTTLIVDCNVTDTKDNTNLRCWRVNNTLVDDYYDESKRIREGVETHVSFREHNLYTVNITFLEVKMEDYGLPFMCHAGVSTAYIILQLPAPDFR
Sequence of CD40 (P25942 21-193): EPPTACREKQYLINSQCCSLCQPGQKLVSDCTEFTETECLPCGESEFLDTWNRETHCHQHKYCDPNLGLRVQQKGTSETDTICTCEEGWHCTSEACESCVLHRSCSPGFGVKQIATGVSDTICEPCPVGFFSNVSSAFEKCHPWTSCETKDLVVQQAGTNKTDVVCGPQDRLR

B1: Spesolimab (Fab, V domains shown)
VH: QVQLVQSGAEVKKPGASVKVSCKASGYSFTSSWIHWVKQAPGQGLEWMGEINPGNVRTNYNENFRNKVTMTVDTSISTAYMELSRLRSDDTAVYYCTVVFYGEPYFPYWGQGTLVTVSS
VL: QIVLTQSPGTLSLSPGERATMTCTASSSVSSSYFHWYQQKPGQAPRLWIYRTSRLASGVPDRFSGSGSGTDFTLTISRLEPEDAATYYCHQFHRSPLTFGAGTKLEIK
B1: in assay [1], the binding result is on record as “binds”.

B2: Ravagalimab (Fab, V domains shown)
VH: EVQLVESGGGLVKPGGSLRLSCAASGFTFSDYGMNWVRQAPGKGLEWIAYISSGRGNIYYADTVKGRFTISRDNAKNSLYLQMNSLRAEDTAVYYCARSWGYFDVWGQGTTVTVSS
VL: DIVMTQSPDSLAVSLGERATINCKSSQSLLNRGNQKNYLTWFQQKPGQPPKLLIYWASTRESGVPDRFSGSGSGTDFTLTISSLQAEDVAVYYCQNDYTYPLTFGQGTKLEIK
For the molecule B2, the binding result in assay [2] is on record as “binds”.

B3: Afasevikumab (Fab, V domains shown)
VH: EVQLVESGGGLVQPGRSLRLSCAASGFTFDDYAMHWVRQAPGKGLEWVSGINWSSGGIGYADSVKGRFTISRDNAKNSLYLQMNSLRAEDTALYYCARDIGGFGEFYWNFGLWGRGTLVTVSS
VL: not shown
For the molecule B3, in assay [3], the binding result is listed as “binds”.
